Bridge positions count the residues as written; N and C are the ends. Square brackets hold non-standard residues; d marks the D form. Peptide text beside a SMILES is read from it.
Columns and labels:
αvβ3 integrin receptor = settings: relative to RGD-Lys-(Arg11)CCMSH; cited from earlier work
MC1 receptor = settings: read-out: MC1 receptor binding affinity; M21 melanoma cells; cited from earlier work
B16/F1 melanoma cells = experiment: Cellular internalization in B16/F1 melanoma cells; type: cell-based, murine
[1] = system: B16/F1 melanoma-bearing C57 mouse; experiment: SPECT/CT melanoma imaging; type: in vivo; settings: 2 h post-injection, approximately 6.7 MBq, one mouse
in vivo = experiment: in vivo; design: species or system mice; settings: C57, mouse, iv, total radioactivity
[2] = system: B16/F1 melanoma-bearing C57 mice; experiment: in vivo; settings: C57, mouse, iv, 2 h
[3] = mouse, in vivo
[4] = 0.037 MBq, Uptake ratio Tumor/Lung

For `CC(C)[C@H](NC(=O)[C@@H]1CCCN1C(=O)[C@H](CCCNC(=N)N)NC(=O)[C@H](CS)NC(=O)[C@H](Cc1c[nH]c2ccccc12)NC(=O)[C@H](CCCNC(=N)N)NC(=O)[C@@H](Cc1ccccc1)NC(=O)[C@H](Cc1c[nH]cn1)NC(=O)[C@H](CCC(=O)O)NC(=O)[C@H](CS)NC(=O)[C@H](CS)NC(=O)[C@H](CCCCN)NC(=O)[C@@H]1CC(=O)N[C@@H](CCCNC(=N)N)C(=O)N[C@@H](C)C(=O)N[C@@H](CC(=O)O)C(=O)N[C@H](Cc2ccc(O)cc2)C(=O)N1)C(N)=O` [RAD-Lys-(Arg^11)CCMSH] (RAD[dY]DKCCEH[dF]RWCRPV-NH2; lactam N-5; C-terminus assumed), the “Decrease of αvβ3 integrin receptor binding affinity on switch from RGD to RAD” value (αvβ3 integrin receptor) is listed as 248 fold and the IC50 (MC1 receptor) is listed as 0.3 nM.
For `CC(C)[C@H](NC(=O)[C@@H]1CCCN1C(=O)[C@H](CCCNC(=N)N)NC(=O)[C@H](CS)NC(=O)[C@H](Cc1c[nH]c2ccccc12)NC(=O)[C@H](CCCNC(=N)N)NC(=O)[C@@H](Cc1ccccc1)NC(=O)[C@H](Cc1c[nH]cn1)NC(=O)[C@H](CCC(=O)O)NC(=O)[C@H](CS)NC(=O)[C@H](CS)NC(=O)[C@H](CCCCN)NC(=O)[C@@H]1CC(=O)N[C@@H](CCCNC(=N)N)C(=O)N[C@@H](C)C(=O)N[C@@H](CC(=O)O)C(=O)N[C@H](Cc2ccc(O)cc2)C(=O)N1)C(N)=O` [^99mTc-RAD-Lys-(Arg^11)CCMSH, metal not drawn] (RAD[dY]DKCCEH[dF]RWCRPV-NH2; lactam N-5; C-terminus assumed), the Activity internalized (B16/F1 melanoma cells; 20 min post incubation) was 59.20 ± 5.10%, the Activity internalized (B16/F1 melanoma cells; after 2 h incubation) was 78.24 ± 1.13% and the “Visualization of flank melanoma tumors by SPECT/CT” value [1] was “visualized clearly”. It also gave a tissue to tissue ratio at 0.5 h (in vivo; [4]) of 4.26, a tissue to tissue ratio at 2 h (in vivo; [4]) of 22.9 and a tissue to tissue ratio at 4 h (in vivo; [4]) of 39.1. The tissue to tissue ratio at 24 h (in vivo; [4]) was 31.9, the tissue uptake dose at 2 h (in vivo; Bladder, percent injected dose) was 69.54 ± 0.63 %ID and the “Bladder, percent injected dose” value [2] was 70.34 ± 3.28 %ID. The “Blood, percent injected dose/gram” value [2] was 0.44 ± 0.11 %ID/g, the “Bone, percent injected dose/gram” value [2] was 0.52 ± 0.31 %ID/g and the “Heart, percent injected dose/gram” value [2] was 0.30 ± 0.10 %ID/g. For the same molecule, the “Kidneys, percent injected dose/gram” value [2] was 50.10 ± 18.56 %ID/g, the “Lung, percent injected dose/gram” value [2] was 0.78 ± 0.17 %ID/g and the “Muscle, percent injected dose/gram” value [2] was 0.28 ± 0.30 %ID/g. For the same molecule, the “Spleen, percent injected dose/gram” value [2] was 0.50 ± 0.09 %ID/g, the “Stomach, percent injected dose/gram” value [2] was 1.92 ± 0.24 %ID/g and the “Transformed to a more lipophilic metabolite in urine” value [3] was 18%.

From PMC3274613 (Bioorganic & medicinal chemistry letters, 2012)
